IntAct's records for PubMed 17485491

B1: Serine/threonine-protein kinase D1 (Mus musculus), Q62101 (parent)
chain: MSVPPLLRPPSPLLPAAAAVAAAAAALVPGSGPAPFPAPGAAPAGGISFHLQIGLSREPVLLLQDSSGDYSLAHVREMACSIVDQKFPECGFYGLYDKILLFRHDPASDNILQLVKIASDIQEGDLIEVVLSASATFEDFQIRPHALFVHSYRAPAFCDHCGEMLWGLVRQGLKCEGCGLNYHKRCAFKIPNNCSGVRRRRLSNVSLTGLGTVRTASAEFSTSVPDEPLLSPVSPGFEQKSPSESFIGREKRSNSQSYIGRPIQLDKLLMSKVKVPHTFVIHSYTRPTVCQFCKKLLKGLFRQGLQCKDCRFNCHKRCAPKVPNNCLGEVTINGELLSPGAESDVVMEEGSDDNDSERNSGLMDDMDEAMVQDTEMALAEGQSGGAEMQDPDADQEDSNRTISPSTSNNIPLMRVVQSVKHTKRRSSTVMKEGWMVHYTSKDTLRKRHYWRLDSKCITLFQNDTGSRYYKEIPLSEILCLEPAKPSALTPVGATPHCFEITTANVVYYVGENVVNPSSSPPNNSVLPSGIGPDVARMWEVAIQHALMPVIPKGSSVGSGSNSHKDISVSISVSNCQIQENVDISTVYQIFPDEVLGSGQFGIVYGGKHRKTGRDVAIKIIDKLRFPTKQESQLRNEVAILQNLHHPGVVNLECMFETPERVFVVMEKLHGDMLEMILSSEKGRLPEHITKFLITQILVALRHLHFKNIVHCDLKPENVLLASADPFPQVKLCDFGFARIIGEKSFRRSVVGTPAYLAPEVLRNKGYNRSLDMWSVGVIIYVSLSGTFPFNEDEDIHDQIQNAAFMYPPNPWKEISHEAIDLINNLLQVKMRKRYSVDKTLSHPWLQDYQTWLDLRELECRIGERYITHESDDSRWEQYAGEQGLQYPAHLISLSASHSDSPEAEEREMKALSERVSIL

Variants of: B1
Conditions: with itb3_human ITGB3, P05106
itb3_human ITGB3, P05106, sequence (P05106 whole entry): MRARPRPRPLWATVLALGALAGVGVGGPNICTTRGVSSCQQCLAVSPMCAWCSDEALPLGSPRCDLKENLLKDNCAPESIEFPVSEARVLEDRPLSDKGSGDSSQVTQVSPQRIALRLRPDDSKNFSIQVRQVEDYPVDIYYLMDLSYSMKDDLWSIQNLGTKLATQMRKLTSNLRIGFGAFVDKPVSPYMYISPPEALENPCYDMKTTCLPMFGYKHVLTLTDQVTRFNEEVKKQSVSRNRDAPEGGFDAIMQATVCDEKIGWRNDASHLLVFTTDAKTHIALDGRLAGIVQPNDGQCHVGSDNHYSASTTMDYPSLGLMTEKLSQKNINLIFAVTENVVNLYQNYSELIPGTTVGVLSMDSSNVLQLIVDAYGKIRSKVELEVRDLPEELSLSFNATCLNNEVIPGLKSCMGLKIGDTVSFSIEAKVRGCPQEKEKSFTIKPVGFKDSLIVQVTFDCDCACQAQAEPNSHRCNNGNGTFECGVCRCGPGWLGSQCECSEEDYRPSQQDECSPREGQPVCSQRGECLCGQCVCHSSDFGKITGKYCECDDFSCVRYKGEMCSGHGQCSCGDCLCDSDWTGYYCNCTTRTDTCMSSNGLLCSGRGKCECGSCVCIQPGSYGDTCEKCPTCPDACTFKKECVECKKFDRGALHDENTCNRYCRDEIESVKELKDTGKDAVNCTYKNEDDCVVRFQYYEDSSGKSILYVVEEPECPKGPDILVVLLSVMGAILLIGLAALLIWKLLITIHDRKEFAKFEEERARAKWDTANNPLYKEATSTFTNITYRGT

effect of a mutation on the interaction | Variant
decreasing interaction | S916A

Variants of: B1
Conditions: with itb3_human ITGB3, P05106
Remark: another data set of the same source

effect of a mutation on the interaction | Variant
disrupting interaction | S916A
